Two molecules from paper PMC4474691, “Leukemia-Associated Mutations in Nucleophosmin Alter Recognition by CRM1: Molecular Basis of Aberrant Transport” (PLoS ONE, 2015) can be followed below.

For the assay, the target named is T1, wild type nucleophosmin (NPM) (human, UniProt P06748 1-294).
T1 construct: human nucleophosmin, full length, wild type, pentameric; also called NPM1; B23; source: E. coli BL21 (DE3), purified (Ni-NTA, TEV, second Ni-NTA, Superdex 200); not shown: (His)10-ZZ, N-terminal, cleaved
Briefly: ITC; importin α, importin Δα or importin α/β at 45–60 μM titrated onto NPM (1–1.2 μM pentamer); 50 mM Tris/HCl pH 7.5, 100 mM NaCl, 2 mM TCEP, 10% glycerol; identical, independent binding sites model; n counts importins for each NPM pentamer. The following applies: both partners purified.

T1 sequence (P06748 whole entry): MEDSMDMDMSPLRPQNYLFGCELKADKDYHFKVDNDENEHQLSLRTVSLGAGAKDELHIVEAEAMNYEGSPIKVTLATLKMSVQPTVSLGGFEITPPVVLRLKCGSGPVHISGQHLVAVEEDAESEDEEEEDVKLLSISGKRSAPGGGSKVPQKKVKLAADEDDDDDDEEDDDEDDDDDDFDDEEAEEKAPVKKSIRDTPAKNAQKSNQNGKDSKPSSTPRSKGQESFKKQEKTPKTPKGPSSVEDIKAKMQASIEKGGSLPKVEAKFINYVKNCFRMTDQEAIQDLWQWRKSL

B1: importin Δα (importin α lacking the importin β binding (IBB) motif) (domain or fragment)
chain: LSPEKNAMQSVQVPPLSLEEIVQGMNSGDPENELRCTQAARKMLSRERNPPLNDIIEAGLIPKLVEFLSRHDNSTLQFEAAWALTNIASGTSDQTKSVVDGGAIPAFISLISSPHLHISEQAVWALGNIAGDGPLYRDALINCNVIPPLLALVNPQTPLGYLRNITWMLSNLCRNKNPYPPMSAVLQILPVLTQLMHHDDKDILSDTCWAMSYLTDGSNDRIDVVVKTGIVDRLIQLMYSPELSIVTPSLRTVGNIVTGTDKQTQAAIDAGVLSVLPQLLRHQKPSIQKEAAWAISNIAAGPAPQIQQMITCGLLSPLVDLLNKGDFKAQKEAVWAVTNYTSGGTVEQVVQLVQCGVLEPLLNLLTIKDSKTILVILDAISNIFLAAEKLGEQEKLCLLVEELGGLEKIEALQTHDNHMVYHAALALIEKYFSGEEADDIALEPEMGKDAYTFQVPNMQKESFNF
As for B1, the Kd turned out to be 295 ± 20 nM, the dH is -14.3 ± 3.5 kcal/mol and the “stoichiometry N” value was 4.9 ± 0.2.

B2: importin α (receptor)
chain: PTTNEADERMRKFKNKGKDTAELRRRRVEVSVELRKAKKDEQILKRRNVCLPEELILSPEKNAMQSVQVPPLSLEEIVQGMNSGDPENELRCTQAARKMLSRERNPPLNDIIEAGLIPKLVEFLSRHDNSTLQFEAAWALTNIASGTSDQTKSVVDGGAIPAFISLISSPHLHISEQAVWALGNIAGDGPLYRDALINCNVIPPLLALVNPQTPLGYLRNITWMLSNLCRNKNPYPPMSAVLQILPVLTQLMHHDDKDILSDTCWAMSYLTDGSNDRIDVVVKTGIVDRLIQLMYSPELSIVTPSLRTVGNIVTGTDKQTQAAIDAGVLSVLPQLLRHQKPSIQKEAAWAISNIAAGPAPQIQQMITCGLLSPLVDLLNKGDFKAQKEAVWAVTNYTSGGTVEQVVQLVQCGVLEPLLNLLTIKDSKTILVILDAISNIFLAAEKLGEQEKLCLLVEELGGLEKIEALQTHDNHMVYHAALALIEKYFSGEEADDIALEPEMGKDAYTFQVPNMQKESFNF
As to B2, the Kd was found to be 703 ± 347 nM, the dH was -10.9 ± 4 kcal/mol and the “stoichiometry N” value was determined as 5 ± 0.2.
